US9266952B2, “Antibodies against ROR1 and uses thereof” (KANCERA AB, priority 2010, dated 2016)

Tested on: primary patient CLL cells
Assay: Primary patient CLL cells i.v. in irradiated NOD.SCID mice, spleen
Type: in vivo
Conditions: 10 mg/kg i.p. from day 5-7 after transfer, sacrificed 3-7 days later, versus isotype control
Procedure: Primary patient CLL cells are intravenously injected into immuno-deficient NOD. SCID mice. The CLL cells home to the spleen and there form proliferating clusters, very similar to human disease. After allowing to settle in the spleen for 5-7 days, the mice were treated with 10 mg/kg anti-ROR1 antibodies every third day and terminated after (A) 7 days, n=7 mice/group; (B) 7 days, n=9-10 mice/group; (C) 4 days, n=8 mice/group; (D) 3 days, n=5 mice/group. At termination the number of CLL cells is quantified in spleen using FACS staining of human CD45, CD19 and CD20. Each figure represents cells from individual CLL patients.
NOD.SCID mice received whole-body irradiation of 1 Gy 1 day prior to injection of primary patient cells.
PBMCs were isolated from peripheral blood of four CLL patients using the Ficoll Hypaque technique. Thereafter, 100×10^6 cells was injected i.v into irradiated NOD.SCID mice. The mice were treated i.p with 10 mg/kg of the ROR1 specific mAb 009-G03, or irrelevant negative control mAb at day 5-7 after transfer of cells to mice and sacrificed 3-7 days later. […]
Spleens were dissected out, minced, and lysed for red blood cells. The cell suspension were stained with fluorochrome conjugated mAb's recognizing human CD45, CD19 or CD20 and CLL cells were quantified as being either CD45^+CD19^+ or CD45^+CD20^+. […]

B1: 010-D06: ROR1 specific mAb, VH SEQ ID NO: 27, VL SEQ ID NO: 28 (FIG. 15) (antibody, listed as Mus musculus, V domains shown)
VH: EVQLLESGGGLVQPGGSLRLSCAASGFTFRDYGMHWVRQAPGKGLEWVSAISGSGGSTFYADSVKGRFTISRDNSKNTLYLQMNSLRAEDTAVYYCARGRSAGSMGYFDYWGQGTLVTVSS
VL: QSVLTQPPSASGTPGQRVTISCTGSSSNIGAGYDVHWYQQLPGTAPKLLIYGNSNRPSGVPDRFSGSKSGTSASLAISGLRSEDEADYYCAAWDDSLNGWVFGGGTKLTVLG
Q: Which “number of grafted CLL cells in the spleen” value does the source give for B1 here?
A: significantly reduces the number of grafted CLL cells in the spleen
